The source of these data is patent publication US6468532 (dated 2002).

The assay has as its target recombinant human IL-8, (ser-IL-8)72 (human, UniProt P10145 28-99). Nature of the assay: competition radioimmunoassay (unlabeled IL-8/125I-IL-8).

B1: full length 6G4V11N35A IgG1 (antibody, V domains shown)
VH: EVQLVQSGGGLVQPGGSLRLSCAASGYSFSSHYMHWVRQAPGKGLEWVGYIDPSNGETTYNQKFKGRFTLSRDNSKNTAYLQMNSLRAEDTAVYYCARGDYRYNGDWFFDVWGQGTLVTVSS
VL: DIQMTQSPSSLSASVGDRVTITCRSSQSLVHGIGATYLHWYQQKPGKAPKLLIYKVSNRFSGVPSRFSGSGSGTDFTLTISSLQPEDFATYYCSQSTHVPLTFGQGTKVEIKR
As to B1, the IC50 turned out to be 0.059 nM.

For orientation: IC50 means the concentration at which inhibition is half-maximal.
